According to PMC4512762:

Key:
[1] = molecular target: Monoglycosylated IgG1-Fc (high mannose glycan at a single CH2 domain of the dimer) (human); test: BLI
[2] = molecular target: Diglycosylated IgG1-Fc (high mannose glycans at both CH2 domains of the dimer) (human); test: BLI

Kd [1]: 0.1 µM
Kd [2]: 0.032 µM
Substance: Fc γ receptor IIIA, soluble domain of the high affinity V158 polymorph
